Patent US20110059889A1 (SYNTONIX PHARMACEUTICALS, published 2011)
Where two headings read alike, the source gives them in different places. Bridge positions count the residues as written; N and C are the ends. Square brackets hold non-standard residues; d marks the D form. Ends that are not written are not given here. Phe(F5) = N[C@@H](Cc1c(F)c(F)c(F)c(F)c1F)C(=O)O; Phe(4-NH2) = Nc1ccc(C[C@H](N)C(=O)O)cc1; Phe(3-Me) = Cc1cccc(C[C@H](N)C(=O)O)c1; Phe(4-Me) = Cc1ccc(C[C@H](N)C(=O)O)cc1; NMeL = CN[C@@H](CC(C)C)C(=O)O; Pen = CC(C)(S)[C@H](N)C(=O)O; hCys = N[C@@H](CCS)C(=O)O; Sar = CNCC(=O)O

Legend:
[1] = molecular target: T1, soluble human FcRn (shFcRn) (human, UniProt P55899 24-297; P61769 21-119); assay: SPR pH 6
T1 construct: Biotinylated for the ELISA, amine-coupled to a CM5 chip for SPR; also called biotinylated shFcRn
T1 sequence (P55899 24-297 limits assumed, chain 1 of 2): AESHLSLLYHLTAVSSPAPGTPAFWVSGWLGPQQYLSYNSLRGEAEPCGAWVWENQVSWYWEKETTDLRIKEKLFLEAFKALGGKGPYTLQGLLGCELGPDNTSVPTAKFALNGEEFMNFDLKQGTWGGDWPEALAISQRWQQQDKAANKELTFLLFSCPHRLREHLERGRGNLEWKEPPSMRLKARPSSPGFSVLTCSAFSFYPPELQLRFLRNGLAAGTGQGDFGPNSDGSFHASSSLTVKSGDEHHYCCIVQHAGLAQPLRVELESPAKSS
T1 sequence (P61769 21-119 limits assumed, chain 2 of 2): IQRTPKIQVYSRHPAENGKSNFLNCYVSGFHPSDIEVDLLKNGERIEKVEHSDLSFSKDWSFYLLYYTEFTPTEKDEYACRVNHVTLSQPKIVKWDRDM
Protocol: (§1) The following steps were performed to cross-link soluble human or cynomolgus FcRn to the dextran surface of a CM5 sensor chip (Biacore AB, Uppsala, Sweden) by an amine coupling reaction involving 1-ethyl-(3-dimethylaminopropyl)-carbodiimide hydrochloride (EDC) (Biacore AB, Uppsala, Sweden) and N-hydroxysuccinimide (NHS) (Biacore AB, Uppsala, Sweden) as recommended by Biacore (BIAapplications Handbook, version AB, section 4.2, Biacore AB, Uppsala, Sweden). […] Residual sites on the FcRn flow cell were blocked with 1 M ethanolamine hydrochloride pH 8.5 (Biacore AB, Uppsala, Sweden). A control flow cell was blocked with ethanolamine for reference subtraction. For analysis of the monomeric peptides, FcRn was coated to a final density of 4000-5000 response units (RU). For analysis of the peptide dimers, FcRn was coated to a density of 2000-2500 RU. All SPR measurements were performed using a BIACORE 3000 Instrument (Biacore AB Uppsala, Sweden). For measurements done at either pH 6 or pH 7.4, experiments were performed in 50 mM phosphate, 100 mM sodium chloride, 0.01% surfactant P20 (Biacore AB, Uppsala, Sweden).
(§2) Ten, 2-fold dilutions of the peptide were injected over the FcRn-CM5 chip at a rate of 20 μl/min for 2 min. The peptide was dissociated from the chip for 2.5 minutes with buffer. Any remaining peptide was removed from the chip with a 30 second injection of HBS-P buffer (Biacore AB, Uppsala, Sweden) at a rate of 30 μl/min. Sensorgrams were generated and analyzed using BiaEval software version 3.1 (Biacore AB, Uppsala, Sweden). The equilibrium RU observed for each injection was plotted against concentration. The equilibrium KD values were derived by analysis of the plots using the steady state affinity model included in the BiaEval software.

[2] = molecular target: T1, soluble human FcRn (shFcRn); assay: IgG competition ELISA
[3] = molecular target: T1, soluble human FcRn (shFcRn); assay: SPR pH 6; remark: listed apart in the source
Protocol: as §1, §2

[4] = molecular target: T1, soluble human FcRn (shFcRn); assay: SPR pH 6; remark: listed apart in the source
Protocol: as §1, §2

[5] = molecular target: T1, soluble human FcRn (shFcRn); assay: SPR pH 7.4
Protocol: as §1, §2

[6] = molecular target: T1, soluble human FcRn (shFcRn); assay: IgG competition ELISA; remark: listed apart in the source
Protocol: The wells were coated with 100 μl/well of 1 μg/ml biotinylated-shFcRn in Buffer A. The plate was sealed and incubated at 37° C. for 2 hours. Afterwards, the plate was washed with 200 μl/well of Buffer B (Buffer B: 100 mM MES pH 6, 150 mM NaCl, 0.5% BSA IgG-free (Jackson ImmunoResearch, West Grove, Pa.), 0.05% Tween-20). […] To allow for mixing, the plate was rocked for 2 minutes, sealed and incubated at 37° C. for 2 hours. […] The plate was covered, incubated for 30 minutes at room temperature and washed 4 times with 200 μl/well of ice-cold buffer B. SureBlue TMB substrate solution (100 μl/well, KPL, Gaithersburg, Md.) was added and the plate was allowed to incubate at room temperature until color developed, which took 5 to 10 minutes. Once color developed, 100 μl/well of TMB stop solution (KPL, Gaithersburg, Md.) was added and the absorbance was measured at 450 nm. The data was plotted as absorbance vs. peptide concentration to derive the inhibitory concentration 50% (IC₅₀) values.

[7] = molecular target: T1, soluble human FcRn (shFcRn); assay: SPR pH 6; remark: listed apart in the source
Protocol: as §1, §2

[8] = molecular target: T1, soluble human FcRn (shFcRn); assay: IgG competition ELISA; remark: listed apart in the source

B1: Peptide No. 90 (peptide)
peptide: QRF[Pen]TGH[Phe(4-Me)]GGLYPCNGP-NH2
modifications: disulfide 4-14; N-terminus assumed
SMILES: Cc1ccc(C[C@@H]2NC(=O)[C@H](Cc3c[nH]cn3)NC(=O)CNC(=O)[C@H]([C@@H](C)O)NC(=O)[C@@H](NC(=O)[C@H](Cc3ccccc3)NC(=O)[C@H](CCCNC(=N)N)NC(=O)[C@@H](N)CCC(N)=O)C(C)(C)SSC[C@@H](C(=O)N[C@@H](CC(N)=O)C(=O)NCC(=O)N3CCC[C@H]3C(N)=O)NC(=O)[C@@H]3CCCN3C(=O)[C@H](Cc3ccc(O)cc3)NC(=O)[C@H](CC(C)C)NC(=O)CNC(=O)CNC2=O)cc1
Kd [1]: 0.2 µM

B2: Peptide No. 62 (peptide)
peptide: QRFCTGHXGGLYPCNGP
modifications: Pen 4; 2-napthylalanine 8; disulfide 4-14; C-terminal amide
Kd [1]: 11 µM | IC50 [2]: 90 µM

B3: Peptide No. 217 (peptide)
peptide: RF[Pen]TGHF[dF][Sar][NMeL]YPC-NH2
modifications: disulfide 3-13; N-terminus assumed
SMILES: CC(C)C[C@H]1C(=O)N[C@@H](Cc2ccc(O)cc2)C(=O)N2CCC[C@H]2C(=O)N[C@H](C(N)=O)CSSC(C)(C)[C@H](NC(=O)[C@H](Cc2ccccc2)NC(=O)[C@@H](N)CCCNC(=N)N)C(=O)N[C@@H]([C@@H](C)O)C(=O)NCC(=O)N[C@@H](Cc2c[nH]cn2)C(=O)N[C@@H](Cc2ccccc2)C(=O)N[C@H](Cc2ccccc2)C(=O)N(C)CC(=O)N1C
Kd [3]: 1.4 µM

B4: Peptide No. 55 (peptide)
peptide: QRF[Pen]TGH[Phe(4-NH2)]GGLYPCNGP-NH2
modifications: disulfide 4-14; N-terminus assumed
SMILES: CC(C)C[C@@H]1NC(=O)CNC(=O)CNC(=O)[C@H](Cc2ccc(N)cc2)NC(=O)[C@H](Cc2c[nH]cn2)NC(=O)CNC(=O)[C@H]([C@@H](C)O)NC(=O)[C@@H](NC(=O)[C@H](Cc2ccccc2)NC(=O)[C@H](CCCNC(=N)N)NC(=O)[C@@H](N)CCC(N)=O)C(C)(C)SSC[C@@H](C(=O)N[C@@H](CC(N)=O)C(=O)NCC(=O)N2CCC[C@H]2C(N)=O)NC(=O)[C@@H]2CCCN2C(=O)[C@H](Cc2ccc(O)cc2)NC1=O
Kd [1]: 1 µM

B5: Peptide No. 89 (peptide)
peptide: QRF[Pen]TGH[Phe(3-Me)]GGLYPCNGP-NH2
modifications: disulfide 4-14; N-terminus assumed
SMILES: Cc1cccc(C[C@@H]2NC(=O)[C@H](Cc3c[nH]cn3)NC(=O)CNC(=O)[C@H]([C@@H](C)O)NC(=O)[C@@H](NC(=O)[C@H](Cc3ccccc3)NC(=O)[C@H](CCCNC(=N)N)NC(=O)[C@@H](N)CCC(N)=O)C(C)(C)SSC[C@@H](C(=O)N[C@@H](CC(N)=O)C(=O)NCC(=O)N3CCC[C@H]3C(N)=O)NC(=O)[C@@H]3CCCN3C(=O)[C@H](Cc3ccc(O)cc3)NC(=O)[C@H](CC(C)C)NC(=O)CNC(=O)CNC2=O)c1
Kd [1]: 0.67 µM | IC50 [2]: 4.1 µM

B6: Peptide No. 70 (peptide)
peptide: QRF[hCys]TGHFGGLYP[Pen]NGP-NH2
modifications: disulfide 4-14; N-terminus assumed
SMILES: CC(C)C[C@@H]1NC(=O)CNC(=O)CNC(=O)[C@H](Cc2ccccc2)NC(=O)[C@H](Cc2c[nH]cn2)NC(=O)CNC(=O)[C@H]([C@@H](C)O)NC(=O)[C@@H](NC(=O)[C@H](Cc2ccccc2)NC(=O)[C@H](CCCNC(=N)N)NC(=O)[C@@H](N)CCC(N)=O)CCSSC(C)(C)[C@@H](C(=O)N[C@@H](CC(N)=O)C(=O)NCC(=O)N2CCC[C@H]2C(N)=O)NC(=O)[C@@H]2CCCN2C(=O)[C@H](Cc2ccc(O)cc2)NC1=O
Kd [4]: 2.1 µM

B7: Peptide No. 59 (peptide)
peptide: QRFCTGHXGGLYPCNGP
modifications: Pen 4; 3-PyridylAla 8; disulfide 4-14; C-terminal amide
Kd [1]: 19 µM | IC50 [2]: 60 µM

B8: Peptide No. 41 (peptide)
peptide: QRF[Pen]TGHFG[dR]LYPCNGP-NH2
modifications: disulfide 4-14; N-terminus assumed
SMILES: CC(C)C[C@@H]1NC(=O)[C@@H](CCCNC(=N)N)NC(=O)CNC(=O)[C@H](Cc2ccccc2)NC(=O)[C@H](Cc2c[nH]cn2)NC(=O)CNC(=O)[C@H]([C@@H](C)O)NC(=O)[C@@H](NC(=O)[C@H](Cc2ccccc2)NC(=O)[C@H](CCCNC(=N)N)NC(=O)[C@@H](N)CCC(N)=O)C(C)(C)SSC[C@@H](C(=O)N[C@@H](CC(N)=O)C(=O)NCC(=O)N2CCC[C@H]2C(N)=O)NC(=O)[C@@H]2CCCN2C(=O)[C@H](Cc2ccc(O)cc2)NC1=O
Kd [5]: 8.8 µM | IC50 [6]: 8.1 µM | Kd [7]: 0.83 µM

B9: Peptide No. 47 (peptide)
peptide: QRF[Pen]TGHF[dD]GLYPCNGP-NH2
modifications: disulfide 4-14; N-terminus assumed
SMILES: CC(C)C[C@@H]1NC(=O)CNC(=O)[C@@H](CC(=O)O)NC(=O)[C@H](Cc2ccccc2)NC(=O)[C@H](Cc2c[nH]cn2)NC(=O)CNC(=O)[C@H]([C@@H](C)O)NC(=O)[C@@H](NC(=O)[C@H](Cc2ccccc2)NC(=O)[C@H](CCCNC(=N)N)NC(=O)[C@@H](N)CCC(N)=O)C(C)(C)SSC[C@@H](C(=O)N[C@@H](CC(N)=O)C(=O)NCC(=O)N2CCC[C@H]2C(N)=O)NC(=O)[C@@H]2CCCN2C(=O)[C@H](Cc2ccc(O)cc2)NC1=O
Kd [5]: 4.9 µM | Kd [7]: 0.58 µM

B10: Peptide No. 295 (peptide)
peptide: QRF[Pen]TGHFG[dP]LYP[Pen]NGP-NH2
modifications: disulfide 4-14; N-terminus assumed
SMILES: CC(C)C[C@@H]1NC(=O)[C@H]2CCCN2C(=O)CNC(=O)[C@H](Cc2ccccc2)NC(=O)[C@H](Cc2c[nH]cn2)NC(=O)CNC(=O)[C@H]([C@@H](C)O)NC(=O)[C@@H](NC(=O)[C@H](Cc2ccccc2)NC(=O)[C@H](CCCNC(=N)N)NC(=O)[C@@H](N)CCC(N)=O)C(C)(C)SSC(C)(C)[C@@H](C(=O)N[C@@H](CC(N)=O)C(=O)NCC(=O)N2CCC[C@H]2C(N)=O)NC(=O)[C@@H]2CCCN2C(=O)[C@H](Cc2ccc(O)cc2)NC1=O
Kd [4]: 0.28 µM | IC50 [8]: 1.6 µM

B11: Peptide No. 57 (peptide)
peptide: QRF[Pen]TGH[Phe(F5)]GGLYPCNGP-NH2
modifications: disulfide 4-14; N-terminus assumed
SMILES: CC(C)C[C@@H]1NC(=O)CNC(=O)CNC(=O)[C@H](Cc2c(F)c(F)c(F)c(F)c2F)NC(=O)[C@H](Cc2c[nH]cn2)NC(=O)CNC(=O)[C@H]([C@@H](C)O)NC(=O)[C@@H](NC(=O)[C@H](Cc2ccccc2)NC(=O)[C@H](CCCNC(=N)N)NC(=O)[C@@H](N)CCC(N)=O)C(C)(C)SSC[C@@H](C(=O)N[C@@H](CC(N)=O)C(=O)NCC(=O)N2CCC[C@H]2C(N)=O)NC(=O)[C@@H]2CCCN2C(=O)[C@H](Cc2ccc(O)cc2)NC1=O
Kd [1]: 70 µM

B12: Peptide No. 46 (peptide)
peptide: QRFCTGHFGXLYPCNGP
modifications: Pen 4; Aib (aminoisobutyric acid) 10; disulfide 4-14; C-terminal amide
Kd [5]: 5.3 µM | IC50 [6]: 2.4 µM | Kd [7]: 0.48 µM
